Test results as given in publication PMC12748864, “Potent neutralization by antibodies targeting the MPXV A28 protein” (Nature Communications, 2025).

Key:
Conditions in all cases: both partners purified
[1] = biological target: T1, VACV A26 (OPG153), residues 2-361 (Vaccinia virus strain IHDW, template …, UniProt P24758, strain); assay: ELISA
T1 construct: also called VACV homolog of A28

[2] = biological target: MPXV A28 (OPG153), residues 2-361 (Monkeypox virus, template GenBank …, UniProt A0A7H0DNC4); assay: ELISA
[3] = biological target: T2, VACV A26 head domain (amino acids 1-397), strain Western Reserve (Vaccinia virus (strain Western Reserve), UniProt P24758); assay: crystal structure
T2 construct: also called residues 1-397 of A26

MPXV A28 (OPG153), residues 2-361, sequence (A0A7H0DNC4 whole entry, looked up, the tested form may be a part): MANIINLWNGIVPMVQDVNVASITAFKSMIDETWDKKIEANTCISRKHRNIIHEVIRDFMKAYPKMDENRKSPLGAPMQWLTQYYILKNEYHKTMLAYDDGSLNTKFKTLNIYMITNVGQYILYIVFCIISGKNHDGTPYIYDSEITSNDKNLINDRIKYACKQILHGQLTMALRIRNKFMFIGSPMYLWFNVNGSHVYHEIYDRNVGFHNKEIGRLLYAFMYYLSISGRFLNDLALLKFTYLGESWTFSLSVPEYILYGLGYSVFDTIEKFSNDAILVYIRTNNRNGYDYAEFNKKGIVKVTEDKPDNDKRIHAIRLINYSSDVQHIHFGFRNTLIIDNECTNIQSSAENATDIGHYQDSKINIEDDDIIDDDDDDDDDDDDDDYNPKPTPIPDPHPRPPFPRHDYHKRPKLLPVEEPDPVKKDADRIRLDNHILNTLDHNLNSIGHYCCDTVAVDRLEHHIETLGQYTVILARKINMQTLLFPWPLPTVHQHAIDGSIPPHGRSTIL

Binder	binding result [1]	binding result [2]	binding result [3]
mAb 10M2146 (human IgG1, anti-A28) (antibody, V domains shown) VH: EVQLVQSGAEVKKPGESLKISCKGSGYSFTTHWIGWVRQMPGEGLEWLGIIYPGDSETKYSPSFQGQVTISVDKSINTAYLHWSSLKASDTAMYFCARRPKNYYDASGYYNWLDPWGQGTLVTVSS VL: EIQMTQSPSTLSASVGDRVTITCRASQSLSTWLAWYQQKPGKAPKLLIYKASILESGVPSRFSASGSGTEFTLTISGLQPDDFATYYCQQYNSYLGAFGQGTKVEIK	binds	binds	–
Germline 1 (germline-reverted 10M2146 / 10M2154) (antibody, V domains shown) VH: EVQLVQSGAEVKKPGESLKISCKGSGYSFTSYWIGWVRQMPGKGLEWMGIIYPGDSDTRYSPSFQGQVTISADKSISTAYLQWSSLKASDTAMYYCARRPKYYYDSSGYYNWLDPWGQGTLVTVSS VL: not shown	binds	binds	–
Fab 10M2146 (Fab, V domains shown, also called 10M2146 F(ab)) VH: EVQLVQSGAEVKKPGESLKISCKGSGYSFTTHWIGWVRQMPGEGLEWLGIIYPGDSETKYSPSFQGQVTISVDKSINTAYLHWSSLKASDTAMYFCARRPKNYYDASGYYNWLDPWGQGTLVTVSS VL: EIQMTQSPSTLSASVGDRVTITCRASQSLSTWLAWYQQKPGKAPKLLIYKASILESGVPSRFSASGSGTEFTLTISGLQPDDFATYYCQQYNSYLGAFGQGTKVEIK	–	–	binds
